The labels stand for the following.
B1: GR LBD (F602S) 521-777 (receptor)
chain: GSVPATLPQLTPTLVSLLEVIEPEVLYAGYDSSVPDSTWRIMTTLNMLGGRQVIAAVKWAKAIPGFRNLHLDDQMTLLQYSWMSLMAFALGWRSYRQSSANLLCFAPDLIINEQRMTLPCMYDQCKHMLYVSSELHRLQVSYEEYLCMKTLLLLSSVPKDGLKSQELFDEIRMTYIKELGKAIVKREGNSSQNWQRFYQLTKLLDSMHEVVENLLNYCFQTFLDKTMSIEFPEMLAEIITNQIPKYSNGNIKKLLFHQK
notes: also called GR(521-777) F602S; cleaved GR LBD
B2: TIF2 732-756 peptide (peptide)
peptide: QEPVSPKKKENALLRYLLDKDDTKD
notes: Free peptide used in solution for the stability study and for co-crystallization; No biotin is mentioned for these uses; also called TIF2 peptide; TIF2 fragment

The data set “X-ray crystal structure” deals with the molecule itself. Description: X-ray crystal structure.
The data set “GR LBD (F602S) 521-777” addresses B1. Description: co-crystallization. The method, then:
The GR/TIF2/DEX crystals were grown at room temperature in hanging drops containing 3.0 ul of the above protein-ligand solutions, and 0.5 ul of well buffer (50 mM HEPES, pH 7.5-8.5 (preferred pH range is 8.0 to 8.5), and 1.7-2.3M ammonium formate). Crystals were also obtained with mixing of the above protein solution and the well buffer at various volume ratios. Crystals appeared overnight and continously grew to a size up to 300 micron within a week. Before data collection, crystals were transiently mixed with the well buffer that contained an additional 25% glycerol, and were then flash frozen in liquid nitrogen.

Turning to B1, in the data set “X-ray crystal structure”, the binding result was “binds”. For the molecule B2, the binding result with GR LBD (F602S) 521-777 was “binds”.
